Target: fusion protein consisting of apoB17 and the receptor binding domain of apoB ("B17(B69-79)")
Experiment: cell-based or functional assay

secretion of the fusion protein: 10 fold
Substance: ligand binding domain of the LDL receptor ("soluble LDL receptor") (from UniProt P01130 22-354)

Reference: patent publication US20040088744A1
